“Also recorded” adds a separate entry of the source. Read-outs that look alike come from different tables or passages of the source.

Assay [1] deals with alloxan-induced diabetic Sprague-Dawley rats. In words: Alloxan-induced diabetic nephropathy model. As to conditions: for proteinuria level (in words) / serum creatinine level (in words): 12 weeks of treatment; for proteinuria level / serum creatinine level: 12 weeks; for proteinuria level: diabetic about 180; for serum creatinine level: diabetic about 115. In kind it is in vivo, rat. The protocol: Similar to streptozotocin, alloxan kills pancreatic β cells and induces type I diabetes (for review, see Cheta et al. (1998) J Pediatr Endocrinol Metab 11: 11-9). Alloxan is also widely used to induce experimental diabetic nephropathy in animals (FIG. 25). Adult female Sprague-Dawley rats (weighing 200-250 g) were intraperitoneally injected with alloxan (70 mg/kg body weight) to induce hyperglycemia. Renal arteries were clamped just prior to injection to prevent direct nephrotoxicity, and then clamps were removed 5 minutes after injection. At week 16 when renal function declined, animals were treated with OP-1 (10 μg/kg body weight, 3×/week, or 30 μg/kg body weight, 1×/week), enalapril (100 mg/L in drinking water) or the combination of OP-1 and enalapril. Control animals without alloxan treatment were handled in all other ways like treated animals. The treatment duration was 12 weeks. All rats were sacrificed after […].

Assay [2] deals with rat remnant kidney model (5/6 NPX). The assay can be described thus: rat partial (5/6) nephrectomy chronic renal failure injury model. Format: in vivo. An excerpt: A rat partial (5/6) nephrectomy or rat remnant kidney model (RRKM) model was employed essentially as described (Vukicevic, et al. (1987) J. Bone Mineral Res. 2: 533, the entire content of which is incorporated herein by reference). Male Munich-Wistar rats (2-3 months old, weighing about 200-250 g) were subjected to renal mass ablation. Specifically, the right kidney is excised in conjunction with selective ligation of the left renal artery branches such that one third of the kidney remains perfused (5/6 NPX, see FIG. 12). Immediately following surgery, plasma creatinine and BUN levels rise dramatically due to the loss of renal mass and function. Over the next several weeks of this “acute” failure phase, plasma creatinine and BUN levels of surviving animals decline somewhat toward normal values but remain elevated. Renal function then appears to remain relatively constant or stable for a period of variable duration. After this point, the animals enter a period of chronic renal failure in which there is an essentially linear decline in renal function ending in death. For these reasons, animals are given 4 weeks of recovery prior to initiation of treatments.
Four weeks after nephrectomy, rats were divided into four treatment groups (see Table III), namely OP-1 (150 μg/kg body weight, 3×/week, by i.p. injection), Vehicle (20 mM arginine/150 mM NaCl, 0.1% Tween-80, pH 9.0, 1 ml/kg body weight, 3×/week, by i.p. injection), enalapril (100 mg/L in drinking water, 8-16 mg/kg body weight), and OP-1 with enalapril. For the first two groups (OP-1 and Vehicle), animals were sacrificed 14 weeks after nephrectomy. For the last two groups (enalapril, and OP-1 with enalapril), animals were sacrificed 26 weeks after nephrectomy. As surgical controls, rats were subjected to a “sham” operation in which the kidneys were decapsulated but no renal tissue was removed. Sham-treated animals were sacrificed 26 weeks after operation. None of the rats died in any group during this study. Systolic blood pressure, urine protein and/or glomerulosclerosis were monitored at intervals between 4 and 26 weeks post surgery.

Assay [3] deals with streptozotocin-induced diabetic Sprague-Dawley rats. The assay can be described thus: Streptozotocin-induced diabetic nephropathy model (Example 3). Particulars: for proteinuria level: OP-1 30 and 100 μg/kg, enalapril 50 and 100 mg/L, or combination, diabetic about 140 mg/day. In kind it is in vivo, rat. The protocol:
Streptozotocin kills pancreatic β cells and induces type I diabetes (for review, see Cheta et al. (1998) J Pediatr Endocrinol Metab 11:11-9). It is widely used to induce experimental diabetic nephropathy in animals (see FIG. 22). Adult female Sprague-Dawley rats (weighing 200-250 g) were intraperitoneally injected with streptozotocin (60 mg/kg body weight) to induce hyperglycemia. Hyperglycemic rats then received daily injections of insulin to maintain blood glucose between 200-400 mg/dL. At week 16 when renal function declined, animals were treated weekly with OP-1 (10, 30 or 100 μg/kg body weight), enalapril (50 or 100 mg/L in drinking water) or a combination of OP-1 and enalapril. Control animals without streptozotocin treatment were handled in all other ways like treated animals. Animals were sacrificed at week 32 post-streptozotocin treatment.

Assay [4] has as its system unilateral ureteral ligation in Sprague-Dawley rats. As to conditions: cited from earlier work; for renal blood flow (RBF): during UUO; for interstitial inflammation, fibrogenesis / renal (tubulointerstitial) fibrosis: OP-1 100 or 300 μg/kg, first 5 days after obstruction, compared with enalapril.
Setting [5] is: summary of the nephrectomy model.

As to `CCOC(=O)[C@H](CCc1ccccc1)N[C@@H](C)C(=O)N1CCC[C@H]1C(=O)O` [enalapril, N-(1-ethoxycarbonyl-3-phenylpropyl)-L-ananyl-L-proline, reference compound], in assay [1], the “proteinuria level (in words)” value was “reduces the proteinuria level; also recorded: reduce the preteinuria level”. Also, the “serum creatinine level (in words)” value is “decreases the serum creatinine level” in assay [1] and “reduces the serum creatinine level at a lesser degree” in assay [1] (listed as elalapril). Also, the proteinuria level is recorded as roughly 140 mg/dL/24 hr in assay [1] (enalapril 100 mg/L drinking water alone, or combination of OP-1 and enalapril); “almost normal level; also recorded: significantly reduced the proteinuria level” in assay [3]. Besides, the “proteinuria level (late-stage)” value in assay [2] (enalapril 100 mg/L drinking water with or without OP-1, up to 26 weeks after nephrectomy) turned out to be 105 mg/day. Further, the tubular atrophy entry in assay [4] (UUO rats) is reported as “an effect not shared with ACEI enalapril”. In addition, in assay [4], the “renal blood flow (RBF)” value is given as “also stimulated RBF”.

B1: OP-1: osteogenic protein-1 (OP-1, also known as BMP-7), morphogen of the OP/BMP family; OP-1 used interchangeably with sBMP-7 (protein)
chain: STGSKQRSQNRSKTPKNQEALRMANVAENSSSDQRQACKKHELYVSFRDLGWQDWIIAPEGYAAYYCEGECAFPLNSYMNATNHAIVQTLVHFINPETVPKPCCAPTQLNAISVLYFDDSSNVILKKYRNMVVRACGCH
As to B1, in assay [1], the “proteinuria level (in words)” value is “reduces the proteinuria level; also recorded: reduce the preteinuria level” and the “serum creatinine level (in words)” value is reported as “decreases the serum creatinine level; also recorded: dramatically reduces the serum creatinine level”. In assay [1] (OP-1 10 μg/kg 3×/week), the serum creatinine level result was “about 65 μmole/L” and the proteinuria level result is “about 80 mg/dL/24 hr”. In addition, in assay [1] (OP-1 30 μg/kg 1×/week), the serum creatinine level was roughly 55 µmol/L and the proteinuria level is roughly 110 mg/dL/24 hr. Further, the blood pressure level entry in assay [2] (OP-1 150 μg/kg i.p. 3×/week from 4 weeks after nephrectomy, to 14 weeks) is on record as “did not dramatically lower the blood pressure level”. In addition, in assay [2] (setting [5]), the glomerular filtration rate result is “improves glomerular filtration rate” and the glomerulosclerosis result was “reduces glomerulosclerosis”. The “mean GFR” value in assay [3] (OP-1 100 μg/kg weekly, weeks 16-32, 32-week diabetic animals about 0.38) is listed as “about 0.7 ml/min/100 g body weight”. The proteinuria level result in assay [3] was “almost normal level; also recorded: reduces proteinuria; also recorded: significantly reduced the proteinuria level”. Further, in assay [3] (weeks 16-32 treatment), the “glomerular filtration rate (in words)” value was “significantly increased the glomerular filtration rate; also recorded: increases the glomerular filtration rate”. Further, in assay [4], the “interstitial inflammation, fibrogenesis / renal (tubulointerstitial) fibrosis” value is “prevented interstitial inflammation and fibrogenesis; also recorded: more effective in preventing tubulointerstitial fibrosis and in preserving renal function; also recorded: reduces renal fibrosis”; the “renal blood flow (RBF)” value was “preserved renal blood flow”. The “interstitial inflammation, fibrogenesis / renal (tubulointerstitial) fibrosis” value in assay [4] (listed as OP-1/BMP-7) is recorded as “Inhibits renal fibrosis”. Also, in assay [4] (UUO rats), the “epithelial cell apoptosis produced by UUO” value was “blocked the stimulation of epithelial cell apoptosis”, the tubular atrophy result is given as “prevention of tubular atrophy; also recorded: reduces tubular atrophy” and the tubular epithelial disruption entry is “inhibited tubular epithelial disruption”.

The values above are taken from patent US20050272649A1, “Conjoint administration of morphogens and ACE inhibitors in treatment of chronic renal failure” (priority 2002, published 2005).
